Experimental data: the supplement of paper PMC9112550, “Optimization of the antimicrobial peptide Bac7 by deep mutational scanning” (BMC Biology, 2022)

Tested on: Escherichia coli TOP10
Experiment: shrunken log2 fold change of peptide-encoding DNA abundance (4.5 h post-induction vs induction); higher = less antimicrobial activity (less host growth inhibition)
Conditions: time post-induction: 4.5 h; library: site-saturation at positions 5, 18, 19, 20
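Also: peptides expressed intracellularly from a pBAD plasmid library in pooled LB shake-flask culture, induced with 0.3% L-arabinose, DNA abundance read by NGS, three biological replicates, DESeq2 with apeglm shrinkage.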

| Sequence | shrunken log2 fold change |
| --- | --- |
| RRIRSRPPRLPRPRPRPPRKPRP | 0.73 |
| RRIRCRPPRLPRPRPRPCDQPRP | 0.143 |
| RRIRCRPPRLPRPRPRPEEKPRP | 0.0239 |
| RRIRARPPRLPRPRPRPLEVPRP | 0.676 |
| RRIRQRPPRLPRPRPRPCIIPRP | -0.0528 |
| RRIRKRPPRLPRPRPRPPDHPRP | 0.973 |
| RRIRSRPPRLPRPRPRPRSHPRP | -0.203 |
| RRIRPRPPRLPRPRPRPGFFPRP | 0.216 |
| RRIRMRPPRLPRPRPRPWGAPRP | 0.698 |
| RRIRMRPPRLPRPRPRPSQAPRP | 0.689 |
| RRIRWRPPRLPRPRPRPTKLPRP | 0.156 |
| RRIRNRPPRLPRPRPRPSKAPRP | -0.0014 |
| RRIRDRPPRLPRPRPRPGKVPRP | -0.00262 |
| RRIRNRPPRLPRPRPRPPTMPRP | -0.126 |
| RRIRLRPPRLPRPRPRPIVYPRP | -0.43 |
| RRIRIRPPRLPRPRPRPCCTPRP | -0.482 |
| RRIRRRPPRLPRPRPRPTLCPRP | 0.581 |
| RRIRIRPPRLPRPRPRPRLRPRP | -0.0272 |
| RRIRVRPPRLPRPRPRPSGVPRP | 0.0069 |
| RRIRNRPPRLPRPRPRPMSEPRP | -0.0254 |
| RRIRLRPPRLPRPRPRPNPIPRP | -0.237 |
| RRIRGRPPRLPRPRPRPVRYPRP | 0.428 |
| RRIRDRPPRLPRPRPRPVRSPRP | 0.155 |
| RRIRARPPRLPRPRPRPNCTPRP | 0.172 |
| RRIRIRPPRLPRPRPRPAQNPRP | -0.0711 |

| Sequence | shrunken log2 fold change |
| --- | --- |
| RRIRARPPRLPRPRPRPLQLPRP | 0.179 |
| RRIRGRPPRLPRPRPRPTRGPRP | 0.808 |
| RRIRPRPPRLPRPRPRPWVSPRP | 0.0233 |
| RRIRWRPPRLPRPRPRPVTRPRP | -0.0273 |
| RRIRVRPPRLPRPRPRPLFIPRP | 0.101 |
| RRIRMRPPRLPRPRPRPFCAPRP | 0.358 |
| RRIRARPPRLPRPRPRPGIFPRP | 0.468 |
| RRIRWRPPRLPRPRPRPTISPRP | 0.21 |
| RRIRYRPPRLPRPRPRPSEEPRP | -0.111 |
| RRIRIRPPRLPRPRPRPQWFPRP | -0.0117 |
| RRIRYRPPRLPRPRPRPDSGPRP | -0.0811 |
| RRIRLRPPRLPRPRPRPCMLPRP | -0.398 |
| RRIRRRPPRLPRPRPRPSPMPRP | 1.54 |
| RRIRRRPPRLPRPRPRPLPSPRP | 0.752 |
| RRIRGRPPRLPRPRPRPASHPRP | 0.252 |
| RRIRARPPRLPRPRPRPVNFPRP | 0.629 |
| RRIRMRPPRLPRPRPRPDLTPRP | 0.869 |
| RRIRARPPRLPRPRPRPSYCPRP | -0.311 |
| RRIRYRPPRLPRPRPRPCHRPRP | -0.169 |
| RRIRRRPPRLPRPRPRPDKWPRP | 0.107 |
| RRIRFRPPRLPRPRPRPGIMPRP | -0.124 |
| RRIRWRPPRLPRPRPRPVMKPRP | 0.12 |
| RRIRRRPPRLPRPRPRPKDHPRP | 0.0887 |
| RRIRTRPPRLPRPRPRPKRQPRP | 0.562 |
| RRIRFRPPRLPRPRPRPWDEPRP | -0.264 |

| Sequence | shrunken log2 fold change |
| --- | --- |
| RRIRYRPPRLPRPRPRPFKWPRP | -0.278 |
| RRIRVRPPRLPRPRPRPRQTPRP | -0.0375 |
| RRIRMRPPRLPRPRPRPLYAPRP | 0.063 |
| RRIRERPPRLPRPRPRPYNGPRP | -0.509 |
| RRIRSRPPRLPRPRPRPACIPRP | -0.31 |
| RRIRCRPPRLPRPRPRPRYKPRP | -0.141 |
| RRIRYRPPRLPRPRPRPIPNPRP | -0.336 |
| RRIRGRPPRLPRPRPRPHCLPRP | 0.196 |
| RRIRWRPPRLPRPRPRPGVTPRP | 0.586 |
| RRIRYRPPRLPRPRPRPEWSPRP | -0.0724 |
| RRIRRRPPRLPRPRPRPRLHPRP | 0.435 |
| RRIRERPPRLPRPRPRPWMFPRP | 0.0458 |
| RRIRLRPPRLPRPRPRPIDFPRP | -0.384 |
| RRIRWRPPRLPRPRPRPDLCPRP | 0.777 |
| RRIRIRPPRLPRPRPRPSGRPRP | -0.427 |
| RRIRGRPPRLPRPRPRPEMRPRP | 2.35 |
| RRIRPRPPRLPRPRPRPHIYPRP | -0.576 |
| RRIRHRPPRLPRPRPRPYFHPRP | -0.955 |
| RRIRNRPPRLPRPRPRPMVLPRP | 0.0232 |
| RRIRFRPPRLPRPRPRPHWDPRP | -0.21 |
| RRIRFRPPRLPRPRPRPKGTPRP | -0.429 |
| RRIRTRPPRLPRPRPRPHDNPRP | -0.574 |
| RRIRKRPPRLPRPRPRPWDAPRP | 0.496 |
| RRIRYRPPRLPRPRPRPLSDPRP | -0.108 |
| RRIRQRPPRLPRPRPRPLDHPRP | -0.198 |

| Sequence | shrunken log2 fold change |
| --- | --- |
| RRIRNRPPRLPRPRPRPFLIPRP | 0.117 |
| RRIRQRPPRLPRPRPRPEVAPRP | 0.00859 |
| RRIRIRPPRLPRPRPRPFAAPRP | -0.258 |
| RRIRDRPPRLPRPRPRPHGHPRP | 0.0317 |
| RRIRNRPPRLPRPRPRPMDHPRP | 0.0184 |
| RRIRQRPPRLPRPRPRPAWSPRP | 0.183 |
| RRIRRRPPRLPRPRPRPIQMPRP | 0.272 |
| RRIRIRPPRLPRPRPRPRCIPRP | -0.44 |
| RRIRHRPPRLPRPRPRPARYPRP | 0.0518 |
| RRIRCRPPRLPRPRPRPWMNPRP | 0.0105 |
| RRIRDRPPRLPRPRPRPFFQPRP | -0.24 |
| RRIRMRPPRLPRPRPRPCWMPRP | 0.114 |
| RRIRYRPPRLPRPRPRPSPMPRP | -0.486 |
| RRIRLRPPRLPRPRPRPCPIPRP | -0.335 |
| RRIRKRPPRLPRPRPRPILEPRP | 0.261 |
| RRIRARPPRLPRPRPRPFSNPRP | -0.342 |
| RRIRNRPPRLPRPRPRPHFFPRP | 3.33 |
| RRIRQRPPRLPRPRPRPNCPPRP | 0.0556 |
| RRIRSRPPRLPRPRPRPKTDPRP | 0.124 |
| RRIRERPPRLPRPRPRPDINPRP | -0.239 |
| RRIRNRPPRLPRPRPRPLMWPRP | -0.175 |
| RRIRLRPPRLPRPRPRPMSTPRP | -0.302 |
| RRIRLRPPRLPRPRPRPWHNPRP | -0.00136 |
| RRIRLRPPRLPRPRPRPASDPRP | -0.19 |
| RRIRWRPPRLPRPRPRPYLYPRP | -0.216 |

| Sequence | shrunken log2 fold change |
| --- | --- |
| RRIRARPPRLPRPRPRPNIGPRP | -0.0734 |
| RRIRFRPPRLPRPRPRPIYVPRP | -0.871 |
| RRIRGRPPRLPRPRPRPMPEPRP | 0.226 |
| RRIRKRPPRLPRPRPRPLSKPRP | 0.213 |
| RRIRNRPPRLPRPRPRPCFFPRP | -0.489 |
| RRIRFRPPRLPRPRPRPESIPRP | -0.126 |
| RRIRSRPPRLPRPRPRPPYTPRP | -0.395 |
| RRIRWRPPRLPRPRPRPGGKPRP | 0.227 |
| RRIRPRPPRLPRPRPRPRIIPRP | -0.18 |
| RRIRCRPPRLPRPRPRPHMRPRP | 0.0898 |
| RRIRVRPPRLPRPRPRPNCGPRP | 0.0742 |
| RRIRWRPPRLPRPRPRPVNDPRP | 0.118 |
| RRIRQRPPRLPRPRPRPQNVPRP | -0.0161 |
| RRIRPRPPRLPRPRPRPCMDPRP | -0.561 |
| RRIRARPPRLPRPRPRPARGPRP | 0.774 |
| RRIRNRPPRLPRPRPRPAHHPRP | -0.0626 |
| RRIRIRPPRLPRPRPRPNCFPRP | 0.00306 |
| RRIRWRPPRLPRPRPRPFTNPRP | 0.115 |
| RRIRDRPPRLPRPRPRPRHDPRP | 0.0894 |
| RRIRGRPPRLPRPRPRPSEAPRP | 0.848 |
| RRIRQRPPRLPRPRPRPFRWPRP | -0.0233 |
| RRIRNRPPRLPRPRPRPWNAPRP | -0.255 |
| RRIRPRPPRLPRPRPRPFEPPRP | 0.232 |
| RRIRCRPPRLPRPRPRPMSLPRP | -0.163 |
| RRIRYRPPRLPRPRPRPPAPPRP | 0.76 |

| Sequence | shrunken log2 fold change |
| --- | --- |
| RRIRTRPPRLPRPRPRPHRDPRP | 0.129 |
| RRIRFRPPRLPRPRPRPFRKPRP | -0.122 |
| RRIRSRPPRLPRPRPRPAMAPRP | 1.64 |
| RRIRWRPPRLPRPRPRPRCQPRP | -0.0289 |
| RRIRWRPPRLPRPRPRPRDQPRP | -0.033 |
| RRIRIRPPRLPRPRPRPQFAPRP | -0.0319 |
| RRIRHRPPRLPRPRPRPINSPRP | -0.404 |
| RRIRNRPPRLPRPRPRPRWRPRP | 0.623 |
| RRIRFRPPRLPRPRPRPSLGPRP | 0.0257 |
| RRIRFRPPRLPRPRPRPCQFPRP | -0.227 |
| RRIRCRPPRLPRPRPRPFGAPRP | 0.102 |
| RRIRGRPPRLPRPRPRPTTDPRP | 0.918 |
| RRIRGRPPRLPRPRPRPCHCPRP | -0.017 |
| RRIRERPPRLPRPRPRPIVQPRP | -0.311 |
| RRIRARPPRLPRPRPRPEKRPRP | 0.128 |
| RRIRMRPPRLPRPRPRPQWMPRP | 0.109 |
| RRIRIRPPRLPRPRPRPYKWPRP | -0.424 |
| RRIRQRPPRLPRPRPRPFSTPRP | 0.0344 |
| RRIRWRPPRLPRPRPRPWDYPRP | -0.0902 |
| RRIRDRPPRLPRPRPRPCTCPRP | -0.198 |
| RRIRYRPPRLPRPRPRPRTMPRP | -1.72 |
| RRIRCRPPRLPRPRPRPKLIPRP | -0.0459 |
| RRIRMRPPRLPRPRPRPCLIPRP | -0.0342 |
| RRIRFRPPRLPRPRPRPVPQPRP | 0.261 |
| RRIRRRPPRLPRPRPRPHSVPRP | 0.0319 |
